# Measured values from patent US11236354B2, “Glyphosate-n-acetyltransferase (GLYAT) sequences and methods of use” (PIONEER HI-BRED INTERNATIONAL, INC., priority 2013, dated 2022).
# Columns and labels:
# O=C(O)CNCP(=O)(O)O = test: cells, lysate or membranes named; conditions: 37.0 °C
# Description: (§1) Cells were lysed with BPER (Pierce) containing 1 mM dithiothreitol, 0.2 mg/ml lysozyme, 2 mg/ml protease inhibitor cocktail (Sigma bacterial cell cocktail, P8465) and endonuclease. Lysate supernatants were passed through a column of NHS-activated Agarose (Thermo, #26197) derivatized with coenzyme A. Columns were washed with 25 mM Hepes, pH 7, containing progressively higher concentrations of KCl, then eluted with 25 mM Hepes, 100 mM KCl, 10% ethylene glycol and 1 mM acetyl CoA. Purity as evaluated by polyacrylamide gel electrophoresis was deemed consistently high enough to be assumed to be 100%. Protein concentration was determined with the Bradford assay using a large-scale lot of produced GLYAT protein as standard.
# (§2) Kinetic parameters for various substrates were obtained using a range of seven substrate concentrations plus a blank containing none of the varied substrate. The non-varied substrate was present at a saturating concentration. Six-microliter aliquots of 50-fold concentrated stock solutions of the varied substrate were placed in a 96-well assay plate (Greiner BioOne UV-Star). Reactions were started with the addition of 294 ul of 25 mM Hepes, pH 7.0, 100 mM KCL, 10% ethylene glycol, the non-varied substrate and 10 to 200 nM enzyme. Absorbance was monitored for one minute with a Spectramax 384 Plus plate reader (Molecular Devices). If the amino acid present at position 30 (29 if alanine is absent at position 2) was cysteine, absorbance was monitored at 235 nm, which directly detects cleavage of the sulfoester bond of acetyl CoA. If the amino acid present at position 30 (29 if alanine is absent at position 2) was isoleucine, 0.5 mM 5,5′-dithiobis-(2-nitrobenzoic acid), which reacts with the coenzyme A thiol generated in the enzyme catalyzed reaction, was included in the reaction mix and absorbance was monitored at 412 nm. Initial rates were processed by the Softmax software to obtain kinetic parameters, using the double-reciprocal transformation.
# N[C@@H](CC(=O)O)C(=O)O = test: cells, lysate or membranes named; conditions: 37.0 °C
# Description: as §1, §2
# [1] = other: SEQ ID NO:8, pH 7.0, non-varied substrate saturating
# [2] = other: SEQ ID NO:2, pH 7.0, non-varied substrate saturating
# [3] = other: SEQ ID NO:4, pH 7.0, non-varied substrate saturating
# [4] = other: SEQ ID NO:6, pH 7.0, non-varied substrate saturating
# [5] = other: SEQ ID NO:1, pH 7.0, non-varied substrate saturating
substance,measurement,setting,value
GLYAT variant SEQ ID NO:8 (derived from SEQ ID NO:1 and 2) (Bacillus licheniformis DSM 13 = ATCC 14580; A28V/D131E/E119K/E14D/E65Q/E67K/E68K/E83D/G37R/G38S/I132T/I135A/I15L/I53V/I91V/K101R/K144R/K58Q/L105M/L106I/L26I/L36T/L97I/M75V/N8S/R47G/R92K/T89S/V114A/Y130F/Y45F),Km,O=C(O)CNCP(=O)(O)O; [1],0.39 mM
same,kcat,O=C(O)CNCP(=O)(O)O; [1],11.4 s⁻¹
same,kcat/Km,O=C(O)CNCP(=O)(O)O; [1],29650 M⁻¹ s⁻¹
same,Km,N[C@@H](CC(=O)O)C(=O)O; [1],60.0 mM
same,kcat,N[C@@H](CC(=O)O)C(=O)O; [1],1.42 s⁻¹
same,kcat/Km,N[C@@H](CC(=O)O)C(=O)O; [1],23.5 M⁻¹ s⁻¹
"GLYAT (glyphosate-N-acetyltransferase), parent, SEQ ID NO:2 (Bacillus licheniformis DSM 13 = ATCC 14580; A28V/D131E/E119K/E63D/E65Q/E67Q/E68K/E83D/E96Q/G37R/I132T/I135V/I15L/I2L/K101R/K144R/K58Q/L105M/L97I/R18K/T89S/V114A/Y130F/Y45F)",Km,O=C(O)CNCP(=O)(O)O; [2],1.38 mM
same,kcat,O=C(O)CNCP(=O)(O)O; [2],4.52 s⁻¹
same,kcat/Km,O=C(O)CNCP(=O)(O)O; [2],3270 M⁻¹ s⁻¹
same,Km,N[C@@H](CC(=O)O)C(=O)O; [2],47.6 mM
same,kcat,N[C@@H](CC(=O)O)C(=O)O; [2],0.887 s⁻¹
same,kcat/Km,N[C@@H](CC(=O)O)C(=O)O; [2],18.7 M⁻¹ s⁻¹
GLYAT variant SEQ ID NO:4 (derived from SEQ ID NO:1 and 2) (Bacillus licheniformis DSM 13 = ATCC 14580; D131E/E14D/E65Q/E67K/E68K/G37R/G38S/I132T/I135A/I15L/I19V/I53V/I91V/K101R/K144R/K58Q/L105M/L26I/L36T/L97I/M75V/R47G/R92K/T33S/T89S/V114A/Y130F/Y31F/Y45F),Km,O=C(O)CNCP(=O)(O)O; [3],1.96 mM
same,kcat,O=C(O)CNCP(=O)(O)O; [3],26.88 s⁻¹
same,kcat/Km,O=C(O)CNCP(=O)(O)O; [3],13800 M⁻¹ s⁻¹
same,Km,N[C@@H](CC(=O)O)C(=O)O; [3],78.3 mM
same,kcat,N[C@@H](CC(=O)O)C(=O)O; [3],2.27 s⁻¹
same,kcat/Km,N[C@@H](CC(=O)O)C(=O)O; [3],29 M⁻¹ s⁻¹
GLYAT variant SEQ ID NO:6 (derived from SEQ ID NO:1 and 2) (Bacillus licheniformis DSM 13 = ATCC 14580; A28V/D131E/E119K/E14D/E65Q/E67K/E68K/G37R/I132T/I135A/I15L/I19V/I53V/I91V/K101R/K144R/K58Q/L105M/L106I/L26I/L36T/L97I/M75A/R47G/R92K/T89S/V114A/V4I/Y130F/Y45F/Y46C),Km,O=C(O)CNCP(=O)(O)O; [4],2.24 mM
same,kcat,O=C(O)CNCP(=O)(O)O; [4],11.2 s⁻¹
same,kcat/Km,O=C(O)CNCP(=O)(O)O; [4],5130 M⁻¹ s⁻¹
same,Km,N[C@@H](CC(=O)O)C(=O)O; [4],66.8 mM
same,kcat,N[C@@H](CC(=O)O)C(=O)O; [4],0.183 s⁻¹
same,kcat/Km,N[C@@H](CC(=O)O)C(=O)O; [4],2.67 M⁻¹ s⁻¹
"GLYAT (glyphosate-N-acetyltransferase), parent, SEQ ID NO:1 (Bacillus licheniformis DSM 13 = ATCC 14580; E119R/E14D/E65Q/E67K/E68K/G37R/G38S/I132T/I135V/I15L/I19V/I53V/I91V/K101R/K144R/K58Q/L105M/L106I/L145I/L26I/L36T/L97I/M75V/R47G/R92K/T33S/T89S/V114A/Y130F/Y31F/Y45F)",Km,O=C(O)CNCP(=O)(O)O; [5],1.36 mM
same,kcat,O=C(O)CNCP(=O)(O)O; [5],24.23 s⁻¹
same,kcat/Km,O=C(O)CNCP(=O)(O)O; [5],18000 M⁻¹ s⁻¹
same,Km,N[C@@H](CC(=O)O)C(=O)O; [5],32.9 mM
same,kcat,N[C@@H](CC(=O)O)C(=O)O; [5],7.3 s⁻¹
same,kcat/Km,N[C@@H](CC(=O)O)C(=O)O; [5],229 M⁻¹ s⁻¹
